Assays:
[1] = target: 人血小板生成素受体 (人c-Mpl) (human) (UniProt P40238); assay: cell-based or functional assay
[2] = target: 人血小板生成素受体 (人c-Mpl) (human) (UniProt P40238); assay: flow cytometry on FM3A-hMpl cells

激动活性 (UT-7/TPO细胞增殖试验), relative to 7-10G4344uhm (of the original level) [1]: 0.1 | 结合活性 relative to the original 7-10G4344uhm (of the original level) [2]: 0.1
B1: 7-10G4344uhm轻链突变抗体 7-10VL_Y94F (antibody, part only; not given: heavy chain, not shown: a dimerising Fc or GST)
light: AIQLTQSPSSLSASVGDRVTITCRASQGISSALAWYQQKPGKAPKLLIYDASSLESGVPSRFSGSGSGTDFTLTISSLQPEDFATYYCQQFNSFPLTFGGGTKVEIK
